The target of this experiment is SARS-CoV-2 spike protein variant V376F on VSV pseudoparticles (SARS-CoV-2) (UniProt P0DTC2). Put plainly: cell-based or functional assay.

This is an account of results in US20230348569A1.

For mAb10987 (antibody), the Neutralization IC50 was 0.0178 nM.
